We go through two molecules from CN114195896A (AQUILARIA SINENSIS QINGSU BIOTECHNOLOGY CO LTD, dated 2022).

Sequences and labels used below:
B1: 商业化BCMA抗原蛋白 (ACRO BIOSYSTEMS, 货号BCA-H522y-1mg) (receptor, UniProt Q02223 1-54, looked up)
chain: MLQMAGQCSQNEYFDSLLHACIPCQLRCSSNTPPLTCQRYCNASVTNSVKGTNA
notes: also called 目标抗原BCMA; 靶蛋白BCMA

In experiment [1] the target is T1, 16-B7-HM4人源化重组抗体 (humanised 16-B7-HM4 recombinant antibody, VHH fused to hIgG1 Fc) (human, UniProt P01857-1 99-330 = IgG part, limits assumed).
T1 construct: domain: Fc; also called 人源化重组抗体16-B7-HM4
T1 sequence (P01857 other isoform, or with tags, fused parts or gaps limits assumed): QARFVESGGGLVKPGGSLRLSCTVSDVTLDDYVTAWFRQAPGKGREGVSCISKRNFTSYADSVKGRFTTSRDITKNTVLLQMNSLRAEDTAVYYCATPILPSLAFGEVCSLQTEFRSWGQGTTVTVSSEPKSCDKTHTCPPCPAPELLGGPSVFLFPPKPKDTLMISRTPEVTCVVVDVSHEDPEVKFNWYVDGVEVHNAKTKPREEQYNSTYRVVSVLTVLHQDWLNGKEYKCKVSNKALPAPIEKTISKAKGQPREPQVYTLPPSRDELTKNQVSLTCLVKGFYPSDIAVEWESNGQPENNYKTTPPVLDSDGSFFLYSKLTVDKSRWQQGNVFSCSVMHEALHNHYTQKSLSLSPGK
Description: SPR, BCMA immobilised on the chip, recombinant antibody as the mobile phase. A general note: In SPR one partner is held on a chip, and binding of the other changes the refractive index at the surface.

For experiment [2], the target named is BCMA expressed on recombinant cells (CHO-BCMA; Nalm6-BCMA-LUC) (UniProt Q02223). Nature of the experiment: flow cytometry on CHO-BCMA cells, purified antibody at 10, 2, 0.4 and 0.08 μg/mL. For orientation: Flow cytometry measures light scatter and fluorescence of single cells or particles in a stream.
In experiment [3] the target is B1. Nature of the experiment: SPR, BCMA immobilised on the chip, recombinant antibody as the mobile phase.

In the case of B1, the equilibrium dissociation constant (Kd) (in general, the equilibrium constant for the complex coming apart) in experiment [1] stood at 1.06 nM.

B2: 16-B7重组抗体 (16-B7 recombinant antibody, VHH fused to hIgG1 Fc) (Fc fusion)
chain: QARFVESGGGLVQSGGSLVLSCTVSDVTLDDYVTAWFRQAPGKEREGVSCISKRNFTSYVDSVKGRFTTSRDITKNTVLLQMNALTPEDTGVYYCATPILPSLAFGEVCSLQTEFRSWGPGTRVTVSS
notes: also called 16-B7纯化重组抗体; 原始序列16-B7; not shown: human IgG1 Fc from the expression vector pcDNA3.1-hIgG1-Fc2
For B2, the antibody concentration at saturation in experiment [2] came out at 2 µg/mL. Moreover, in experiment [3], the Kd came out at 3.73 nM.
